Source: article PMC2784006

Biological target: HA-tagged Synaptic Cell Adhesion Molecule 1 (HA-SynCAM1), full length (mouse)
Assay: Cell Adhesion Molecule / Receptor Recruitment Assay

Chain of HA-tagged Synaptic Cell Adhesion Molecule 1 (HA-SynCAM1), full length (mouse) (Q8R5M8 48-456): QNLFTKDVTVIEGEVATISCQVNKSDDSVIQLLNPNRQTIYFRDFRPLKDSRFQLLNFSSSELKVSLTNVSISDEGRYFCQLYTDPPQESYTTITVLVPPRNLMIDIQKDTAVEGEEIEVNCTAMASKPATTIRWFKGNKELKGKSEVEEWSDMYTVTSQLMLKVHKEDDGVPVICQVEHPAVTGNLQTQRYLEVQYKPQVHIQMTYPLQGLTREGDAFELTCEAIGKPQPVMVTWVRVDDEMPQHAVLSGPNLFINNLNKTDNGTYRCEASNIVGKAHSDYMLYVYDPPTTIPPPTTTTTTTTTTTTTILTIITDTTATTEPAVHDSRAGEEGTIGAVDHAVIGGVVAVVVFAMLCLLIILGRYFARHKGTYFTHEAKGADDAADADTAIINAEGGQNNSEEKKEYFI

| Molecule | % increase in fluorescence intensity at microspheres relative to background [%] |
| --- | --- |
| GFP-tagged erythrocyte protein band 4.1-like 3 (protein 4.1B), full length (4.1B-GFP) (natural protein) | 114 |
| protein 4.1N, GFP tagged (4.1N-GFP) (from UniProt Q9Z2H5 1-879) (natural protein) | 100 |

Now from value to molecule:

| % increase in fluorescence intensity at microspheres relative to background [%] | Molecule |
| --- | --- |
| 91.8 | Syntenin1-GFP (from UniProt O00560 1-298) (natural protein) |
| 123 | calcium/calmodulin-dependent serine protein kinase (CASK) (natural protein) MADDDVLFEDVYELCEVIGKGPFSVVRRCINRETGQQFAVKIVDVAKFTSSPGLSTEDLKREASICHMLKHPHIVELLETYSSDGMLYMVFEFMDGADLCFEIVKRADAGFVYSEAVASHYMRQILEALRYCHDNNIIHRDVKPHCVLLASKENSAPVKLGGFGVAIQLGESGLVAGGRVGTPHFMAPEVVKREPYGKPVDVWGCGVILFILLSGCLPFYGTKERLFEGIIKGKYKMNPRQWSHISESAKDLVRRMLMLDPAERITVYEALNHPWLKERDRYAYKIHLPETVEQLRKFNARRKLKGAVLAAVSSHKFNSFYGDPPEELPDFSEDPTSSGLLAAERAVSQVLDSLEEIHALTDCSEKDLDFLHSVFQDQHLHTLLDLYDKINTKSSPQIRNPPSDAVQRAKEVLEEISCYPENNDAKELKRILTQPHFMALLQTHDVVAHEVYSDEALRVTPPPTSPYLNGDSPESANGDMDMENVTRVRLVQFQKNTDEPMGITLKMNELNHCIVARIMHGGMIHRQGTLHVGDEIREINGISVANQTVEQLQKMLREMRGSITFKIVPSYRTQSSSCERDSPSTSRQSPANGHSSTNNSVSDLPSTTQPKGRQIYVRAQFEYDPAKDDLIPCKEAGIRFRVGDIIQIISKDDHNWWQGKLENSKNGTAGLIPSPELQEWRVACIAMEKTKQEQQASCTWFGKKKKQYKDKYLAKHNAVFDQLDLVTYEEVVKLPAFKRKTLVLLGAHGVGRRHIKNTLITKHPDRFAYPIPHTTRPPKKDEENGKNYYFVSHDQMMQDISNNEYLEYGSHEDAMYGTKLETIRKIHEQGLIAILDVEPQALKVLRTAEFAPFVVFIAAPTITPGLNEDESLQRLQKESDVLQRTYAHYFDLTIINNEIDETIRHLEEAVELVCTAPQWVPVSWVY |
